In patent US20120316071A1 (published 2012) one finds ECL signal data, which are given here for 4 molecules.

The target of experiment [1] is T1, rHuman CD44/Fc Chimera, CF (R&D Systems Cat#3660-CD) (human, UniProt P16070 21-220).
T1 construct: Bought reagent
The experiment is described as follows: ECL multispot (MSD), antigen spotted, Fab in solution; blank spot 407.

Experiment [2] concerns the target T2, rHuman ErbB2/Fc Chimera, CF (R&D Systems Cat#1129-ER) (human, UniProt P04626 23-652).
T2 construct: Bought reagent
The description is as above.

Experiment [3] deals with T3, rHuman Notch-1/Fc Chimera, CF (R&D Systems Cat#3647-TK) (human, UniProt P46531 19-526).
T3 construct: Bought reagent
The description is as above.

Experiment [4] addresses T4, rHuman IGF-1 sR (insulin-like growth factor-1 soluble receptor), CF (R&D Systems Cat#391-GR) (human, UniProt P08069 31-932).
T4 construct: Bought soluble receptor
The description is as above.

For experiment [5], the target named is T5, rHuman EGF R/Fc Chimera, CF (R&D Systems Cat#344-ER) (human, UniProt P00533 25-645).
T5 construct: Bought reagent
The experiment is described as above.

Experiment [6] concerns the target T6, rHuman HGF R/c-MET/Fc Chimera, CF (R&D Systems Cat#358-MT/CF) (human, UniProt P08581 25-932).
T6 construct: Bought reagent; also called HGF R/Fc
The description is as above.

Experiment [7] concerns the target T7, Recombinant Human DLL4 (R&D Systems Cat#1506-D4/CF) (human, UniProt Q9NR61 27-524).
T7 construct: Bought recombinant protein; also called delta-like protein 4; rHuman DLL4
Described as above.

Experiment [8] has as its target T8, rHuman P-Cadherin/Fc Chimera, CF (R&D Systems Cat#861-PC) (human, UniProt P22223 108-654).
T8 construct: Bought reagent
The experiment is described as above.

The target of experiment [9] is T9, rHuman Erythropoietin R/Fc Chimera, CF (R&D Systems Cat#963-ER) (human, UniProt P19235 25-250).
T9 construct: Bought reagent; also called EPO R; Epo R/Fc
T9 sequence (looked up): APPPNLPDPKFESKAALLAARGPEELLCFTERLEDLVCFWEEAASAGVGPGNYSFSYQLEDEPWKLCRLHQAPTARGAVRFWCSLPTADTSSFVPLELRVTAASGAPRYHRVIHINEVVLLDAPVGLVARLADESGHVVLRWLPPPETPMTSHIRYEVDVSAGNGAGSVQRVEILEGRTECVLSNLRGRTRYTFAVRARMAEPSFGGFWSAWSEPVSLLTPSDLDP
The experiment is described as above.

In experiment [10] the target is T1, rHuman CD44/Fc Chimera, CF (R&D Systems …). The experiment is described as follows: ECL multispot (MSD), antigen spotted, Fab in solution; blank spot 262.
The target of experiment [11] is T2, rHuman ErbB2/Fc Chimera, CF (R&D …). The experiment is described as above.
The target in experiment [12] is T3, rHuman Notch-1/Fc Chimera, CF (R&D …). The experiment is described as above.
For experiment [13], the target named is T4, rHuman IGF-1 sR (insulin-like growth …). The description is as above.
In experiment [14] the target is T5, rHuman EGF R/Fc Chimera, CF (R&D …). The description is as above.
For experiment [15], the target named is T6, rHuman HGF R/c-MET/Fc Chimera, CF (R&D …). Described as above.
For experiment [16], the target named is T7, Recombinant Human DLL4 (R&D Systems …). Described as above.
Experiment [17] addresses T8, rHuman P-Cadherin/Fc Chimera, CF (R&D …). The description is as above.
Experiment [18] has as its target T9, rHuman Erythropoietin R/Fc Chimera, CF …. Described as above.
For experiment [19], the target named is T1, rHuman CD44/Fc Chimera, CF (R&D Systems …). Kind of experiment: ECL multispot (MSD), antigen spotted, Fab in solution; blank spot 416.
The target of experiment [20] is T2, rHuman ErbB2/Fc Chimera, CF (R&D …). The experiment is described as above.
For experiment [21], the target named is T3, rHuman Notch-1/Fc Chimera, CF (R&D …). The experiment is described as above.
The target in experiment [22] is T4, rHuman IGF-1 sR (insulin-like growth …). Described as above.
Experiment [23] deals with T5, rHuman EGF R/Fc Chimera, CF (R&D …). The experiment is described as above.
The target of experiment [24] is T6, rHuman HGF R/c-MET/Fc Chimera, CF (R&D …). Described as above.
Experiment [25] deals with T7, Recombinant Human DLL4 (R&D Systems …). Described as above.
The target of experiment [26] is T8, rHuman P-Cadherin/Fc Chimera, CF (R&D …). The description is as above.
The target in experiment [27] is T9, rHuman Erythropoietin R/Fc Chimera, CF …. Described as above.
The target in experiment [28] is T2, rHuman ErbB2/Fc Chimera, CF (R&D …). The experiment is described as follows: ECL multispot (MSD), antigen spotted, Fab in solution; blank spot 306.
The target in experiment [29] is T4, rHuman IGF-1 sR (insulin-like growth …). The experiment is described as above.
In experiment [30] the target is T5, rHuman EGF R/Fc Chimera, CF (R&D …). The description is as above.
The target of experiment [31] is T6, rHuman HGF R/c-MET/Fc Chimera, CF (R&D …). Described as above.
The target in experiment [32] is T7, Recombinant Human DLL4 (R&D Systems …). Described as above.
Experiment [33] has as its target T8, rHuman P-Cadherin/Fc Chimera, CF (R&D …). Described as above.

T6 sequence (P08581 25-932, change not shown): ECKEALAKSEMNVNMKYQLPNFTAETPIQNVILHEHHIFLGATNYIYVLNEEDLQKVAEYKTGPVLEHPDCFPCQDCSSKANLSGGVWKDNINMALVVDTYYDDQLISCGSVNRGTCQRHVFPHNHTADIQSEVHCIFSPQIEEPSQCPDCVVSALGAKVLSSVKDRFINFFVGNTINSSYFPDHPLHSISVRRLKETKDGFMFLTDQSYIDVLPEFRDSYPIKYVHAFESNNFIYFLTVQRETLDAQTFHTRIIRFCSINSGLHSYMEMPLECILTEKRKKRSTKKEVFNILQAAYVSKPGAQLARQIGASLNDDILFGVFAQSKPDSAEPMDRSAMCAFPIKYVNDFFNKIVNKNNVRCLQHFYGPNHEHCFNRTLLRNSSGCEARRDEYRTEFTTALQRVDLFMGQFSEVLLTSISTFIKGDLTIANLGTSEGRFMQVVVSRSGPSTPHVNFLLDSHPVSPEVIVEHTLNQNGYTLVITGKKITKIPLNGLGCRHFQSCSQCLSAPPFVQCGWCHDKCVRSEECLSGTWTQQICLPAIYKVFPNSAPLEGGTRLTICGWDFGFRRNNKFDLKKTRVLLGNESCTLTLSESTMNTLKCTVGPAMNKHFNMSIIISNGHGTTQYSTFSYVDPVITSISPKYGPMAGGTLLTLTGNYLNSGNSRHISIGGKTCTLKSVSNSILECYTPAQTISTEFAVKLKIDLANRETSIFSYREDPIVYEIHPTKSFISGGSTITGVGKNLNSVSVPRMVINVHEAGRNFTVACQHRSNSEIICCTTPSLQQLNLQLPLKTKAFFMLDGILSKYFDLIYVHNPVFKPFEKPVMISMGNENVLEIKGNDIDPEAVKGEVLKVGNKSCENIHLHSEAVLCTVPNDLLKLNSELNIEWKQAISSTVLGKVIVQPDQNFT

B1: Fab VH1-46_IGHD6-6*01_IGHJ1*01 S102A/S103P/S104F/H111F (APFF) & L6_IGKJ1*01 S30T (Fab, V domains shown)
VH: QVQLVQSGAEVKKPGASVKVSCKASGYTFTSYYMHWVRQAPGQGLEWMGIINPSGGSTSYAQKFQGRVTMTRDTSTSTVYMELSSLRSEDTAVYYCAREEYAPFSAEYFQFWGQGTLVTVSS
VL: EIVLTQSPATLSLSPGERATLSCRASQSVTSYLAWYQQKPGQAPRLLIYDASNRATGIPARFSGSGSGTDFTLTISSLEPEDFAVYYCQQRSNWPPWTFGQGTKVEIKR
notes: Tested as Fab made in E. coli: VH joined to CH1 from Plasmid A (His6 and Flag tags), VL joined to kappa CL from Plasmid C; also called APFF / S30T
On to B1, for which the ECL signal was determined as 423 in experiment [1]; 332 in experiment [2]; 413 in experiment [3]; 410 in [4]; 360 in [5]; 375 in experiment [6]. In addition, the ECL signal in [7] amounted to 122000; in [8], 370; in experiment [9], 497.

B2: Fab VH1-46_IGHD6-6*01_IGHJ1*01 S102A/S103P/S104F/H111F (APFF) & L6_IGKJ1*01 S30P (Fab, V domains shown)
VH: QVQLVQSGAEVKKPGASVKVSCKASGYTFTSYYMHWVRQAPGQGLEWMGIINPSGGSTSYAQKFQGRVTMTRDTSTSTVYMELSSLRSEDTAVYYCAREEYAPFSAEYFQFWGQGTLVTVSS
VL: EIVLTQSPATLSLSPGERATLSCRASQSVPSYLAWYQQKPGQAPRLLIYDASNRATGIPARFSGSGSGTDFTLTISSLEPEDFAVYYCQQRSNWPPWTFGQGTKVEIKR
notes: Tested as Fab made in E. coli: VH joined to CH1 from Plasmid A (His6 and Flag tags), VL joined to kappa CL from Plasmid C; also called APFF / S30P
For B2, the ECL signal in experiment [10] was 334; in experiment [11], 391; in experiment [12] it was 544; in experiment [13] it was 356; in experiment [14] it was 394; in experiment [15], 328. The figures for the ECL signal in [16], in [17] and in experiment [18] were 1140, 348 and 520, respectively.

B3: Fab VH1-46_IGHD6-6*01_IGHJ1*01 S102A/S103P/S104F/H111F (APFF) & L6_IGKJ1*01 S30R (Fab, V domains shown)
VH: QVQLVQSGAEVKKPGASVKVSCKASGYTFTSYYMHWVRQAPGQGLEWMGIINPSGGSTSYAQKFQGRVTMTRDTSTSTVYMELSSLRSEDTAVYYCAREEYAPFSAEYFQFWGQGTLVTVSS
VL: EIVLTQSPATLSLSPGERATLSCRASQSVRSYLAWYQQKPGQAPRLLIYDASNRATGIPARFSGSGSGTDFTLTISSLEPEDFAVYYCQQRSNWPPWTFGQGTKVEIKR
notes: Tested as Fab made in E. coli: VH joined to CH1 from Plasmid A (His6 and Flag tags), VL joined to kappa CL from Plasmid C; also called APFF / S30R
For B3, the ECL signal in [19] stood at 455; in experiment [20] it was 434; in experiment [21], 576; in experiment [22] it was 404; in [23], 456; in experiment [24] it was 458. The ECL signal in experiment [25] is 146000; in experiment [26], 465; in experiment [27], 571.

B4: Fab VH1-46_IGHD6-6*01_IGHJ1*01 S102A/S103P/S104F/H111F (APFF) & L6_IGKJ1*01 (Fab, V domains shown)
VH: QVQLVQSGAEVKKPGASVKVSCKASGYTFTSYYMHWVRQAPGQGLEWMGIINPSGGSTSYAQKFQGRVTMTRDTSTSTVYMELSSLRSEDTAVYYCAREEYAPFSAEYFQFWGQGTLVTVSS
VL: not shown
notes: Tested as Fab made in E. coli: VH joined to CH1 from Plasmid A (His6 and Flag tags), VL joined to kappa CL from Plasmid C; Light chain unmutated (parent); also called APFF / parent; H:APFF & L:wt
For the molecule B4, the ECL signal in [28] is 412; in experiment [29], 409; in experiment [30], 386; in [31], 349; in [32], 208000; in experiment [33], 466.
